The values below come from the supplement of paper PMC10899765.

Conditions in all cases: 20 nM; 72 h
Data set [1] relates to MCF10A. Kind of data set: percent viability (nuclei count relative to siNT); higher = more viable cells. As to the method:
(§1)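 After 72 h, cells were fixed and stained with Hoechst and anti-fibrillarin, and nucleoli per nucleus were counted with CellProfiler. Values are plate-adjusted percent effect for the one-nucleolus and 5+ nucleoli phenotypes, normalised to siNT (0%) and to the positive controls siNOL11 or siKIF11 (100%), as the mean of biological triplicates. Percent viability is the nuclei count relative to siNT.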

The test system of data set [2] is MCF10A. Put plainly: 5+ nucleoli phenotype percent effect (relative to siNT 0% and siKIF11 100%); higher = more cells with five or more nucleoli. As to the method: as §1
Data set [3] deals with MCF10A. Put plainly: one-nucleolus phenotype percent effect (relative to siNT 0% and siNOL11 100%); higher = more cells with one nucleolus (ribosome biogenesis inhibition). The procedure: as §1

Turning to AGACCCUGCAGCCUUCCCACC [hsa-miR-4725-5p], in the data set with MCF10A [1], the percent viability is 36%. Also, in the data set on MCF10A [2], the “5+ nucleoli phenotype percent effect” value was -16%. Further, the “one-nucleolus phenotype percent effect” value with MCF10A [3] turned out to be 17.4%.
As for GCCCAAAGGUGAAUUUUUUGGG [hsa-miR-186-3p], the percent viability with MCF10A [1] worked out at 176%. Besides, in the data set with MCF10A [2], the “5+ nucleoli phenotype percent effect” value is 26.4%. The “one-nucleolus phenotype percent effect” value with MCF10A [3] is -20.2%.
Taken in the same sequence, the figures for “UGUGGGUGGGAAGGACUGGAUU [hsa-miR-6748-5p]” were 22.6%, -25.6% and 30.1%.
On to “UCAGAUGAUCUAAAGGCCUAUA [hsa-miR-1245b-3p]”, for which the percent viability in the data set with MCF10A [1] was 34.5%. Moreover, the “5+ nucleoli phenotype percent effect” value with MCF10A [2] is -4.77%. Further, the “one-nucleolus phenotype percent effect” value in the data set on MCF10A [3] worked out at 9.29%.
Taken in the same sequence, the figures for CAGUUGGGUCUAGGGGUCAGGA [hsa-miR-4259] were 16%, -30.7% and 31.8%.
In the same order, the values of “CUUCCCCCCAGUAAUCUUCAUC [hsa-miR-3679-3p]” are 88.6%, -16.6% and 4.01%.
In the same order, the values of UGGAGAUCCAGUGCUCGCCCGAU [hsa-miR-4683] are 56.7%, -20.1% and 24.4%.
For the sequence “CUCCCCUCUCUUUCCUGUUCAG [hsa-miR-6826-3p]”, in the data set with MCF10A [1], the percent viability stood at 52.3%. Besides, the “5+ nucleoli phenotype percent effect” value with MCF10A [2] is -9.68%. For the same sequence, in the data set with MCF10A [3], the “one-nucleolus phenotype percent effect” value is 0.6%.
As to ACCUGAAUUACCAAAAGCUUU [hsa-miR-3140-5p], the percent viability in the data set on MCF10A [1] was 118%. Further, in the data set on MCF10A [2], the “5+ nucleoli phenotype percent effect” value is 26.3%. For the same sequence, the “one-nucleolus phenotype percent effect” value in the data set with MCF10A [3] is -18.7%.
Taken in the same sequence, the figures for “CACCGGGGAUGGCAGAGGGUCG [hsa-miR-4655-5p]” were 16.1%, 15% and 24.6%.
In the same order, the values of GGUCGUAUGUGUGACGCCAUUU [hsa-miR-489-5p] are 63%, -3.91% and -3.74%.
In the same order, the values of “GAAAGUGCUUCCUUUUAGAGGC [hsa-miR-526b-3p]” are 105%, 57.2% and -23.4%.
In the case of GGGGAACUGUAGAUGAAAAGGC [hsa-miR-8059], the percent viability in the data set with MCF10A [1] worked out at 101%. Moreover, the “5+ nucleoli phenotype percent effect” value with MCF10A [2] stood at 34.6%. In addition, in the data set on MCF10A [3], the “one-nucleolus phenotype percent effect” value is -28.4%.
In the same order, the values of AGCGGUGCUCCUGCGGGCCGA [hsa-miR-4746-3p] are 34.7%, -33% and 35.6%.
Taken in the same sequence, the figures for UCCUUCUGCUCCGUCCCCCAG [hsa-miR-1237-3p] were 52.7%, 6.7% and -0.823%.
Taken in the same sequence, the figures for “GAUAUCAGCUCAGUAGGCACCG [hsa-miR-3074-3p]” were 25.1%, 2.53% and -9.52%.
For CCCAGAUAAUGGCACUCUCAA [hsa-miR-488-5p], the percent viability with MCF10A [1] is 50.9%. For the same sequence, the “5+ nucleoli phenotype percent effect” value in the data set on MCF10A [2] is 32.8%. The “one-nucleolus phenotype percent effect” value in the data set with MCF10A [3] is -5.8%.
Taken in the same sequence, the figures for CAAAGUGAUGAGUAAUACUGGCUG [hsa-miR-3609] were 98.3%, 2.01% and -12.6%.
Taken in the same sequence, the figures for “UAGUCCCUUCCUUGAAGCGGUC [hsa-miR-2114-5p]” were 25.2%, -46% and 43.8%.
In the same order, the values of UCUGGCUAUCUCACGAGACUGU [hsa-miR-4794] are 35.9%, 3.59% and 26.9%.
Consider AUUGUAGAACCUAAGAUUGGCC [hsa-miR-3674], for which, in the data set on MCF10A [1], the percent viability was found to be 27.9%. In the data set on MCF10A [2], the “5+ nucleoli phenotype percent effect” value is -29.6%. The “one-nucleolus phenotype percent effect” value in the data set on MCF10A [3] came out at 40.2%.
In the same order, the values of GAGACAGGUUCAUGCUGCUA [hsa-miR-4524b-3p] are 25.8%, -32.4% and 37.3%.
Taken in the same sequence, the figures for UCAUCCUCGUCUCCCUCCCAG [hsa-miR-5196-3p] were 44.3%, -6.21% and -13.1%.
Taken in the same sequence, the figures for “AGUGGGGUGGGACCCAGCUGUU [hsa-miR-6742-5p]” were 21.8%, -35.4% and 43.2%.
Turning to ACUGUAGUAUGGGCACUUCCAG [hsa-miR-20b-3p], the percent viability in the data set on MCF10A [1] amounted to 74%. For the same sequence, the “5+ nucleoli phenotype percent effect” value in the data set on MCF10A [2] was -11.6%. The “one-nucleolus phenotype percent effect” value in the data set on MCF10A [3] amounted to 1.32%.
UCUGGCAAGUAAAAAACUCUCAU [hsa-miR-3128]: the percent viability with MCF10A [1] was 24.9%. In the data set on MCF10A [2], the “5+ nucleoli phenotype percent effect” value was -13.6%. The “one-nucleolus phenotype percent effect” value in the data set on MCF10A [3] stood at 10.4%.
For the sequence CUAGACUGAAGCUCCUUGAGG [hsa-miR-151a-3p], in the data set on MCF10A [1], the percent viability amounted to 66.5%. The “5+ nucleoli phenotype percent effect” value in the data set with MCF10A [2] is -6.07%. The “one-nucleolus phenotype percent effect” value with MCF10A [3] is -1.52%.
In the same order, the values of GUGGGGGAGAGGCUGUC [hsa-miR-1275] are 20.5%, -28.2% and 43%.
Taken in the same sequence, the figures for UAGAGGAAGCUGUGGAGAGA [hsa-miR-3125] were 23.3%, -14.5% and 13.8%.
Taken in the same sequence, the figures for UGAGGUAGUAGGUUGUGUGGUU [hsa-let-7b-5p] were 22.8%, 33.9% and -9.82%.
Consider UGACUGAGCUUCUCCCCACAG [hsa-miR-6857-3p], for which the percent viability in the data set on MCF10A [1] was 34.9%. In addition, the “5+ nucleoli phenotype percent effect” value in the data set with MCF10A [2] was -17.1%. The “one-nucleolus phenotype percent effect” value with MCF10A [3] amounted to 32.8%.
In the same order, the values of CGCUUUGCUCAGCCAGUGUAG [hsa-miR-1251-3p] are 76.2%, -13.1% and 18.6%.
In the same order, the values of GAUGAGCUCAUUGUAAUAUGAG [hsa-miR-556-5p] are 111%, 8.79% and -2.48%.
Consider CACACACACACACACACGUAU [hsa-miR-8485], for which, in the data set with MCF10A [1], the percent viability amounted to 15.8%. Further, the “5+ nucleoli phenotype percent effect” value in the data set on MCF10A [2] was -36.9%. Moreover, the “one-nucleolus phenotype percent effect” value in the data set on MCF10A [3] is 57.6%.
Taken in the same sequence, the figures for GUUAGGGCCAACAUCUCUUGG [hsa-miR-2909] were 48.3%, 5.52% and -6.14%.
In the same order, the values of UGAGGCAGUAGAUUGAAU [hsa-miR-1827] are 16.7%, -33.8% and 60.2%.
Taken in the same sequence, the figures for GUGAAGGCCCGGCGGAGA [hsa-miR-6126] were 77.8%, -28.6% and -11.8%.
On to “UGAAACUGGAGCGCCUGGAGGA [hsa-miR-4738-3p]”, for which the percent viability in the data set on MCF10A [1] is 28.6%. In addition, in the data set on MCF10A [2], the “5+ nucleoli phenotype percent effect” value was -20.8%. Besides, in the data set on MCF10A [3], the “one-nucleolus phenotype percent effect” value worked out at 26.9%.
Taken in the same sequence, the figures for “UAGUGCAAUAUUGCUUAUAGGGU [hsa-miR-454-3p]” were 121%, 54.6% and -20.8%.
In the same order, the values of UAGUGAGUUAGAGAUGCAGAGCC [hsa-miR-3174] are 38.1%, -38.2% and 12.5%.
In the same order, the values of CUGAUAAGAACAGAGGCCCAGAU [hsa-miR-3161] are 34.7%, -24.6% and 18.2%.
Regarding UCUGGUAAGAGAUUUGGGCAUA [hsa-miR-4490], the percent viability in the data set with MCF10A [1] turned out to be 54.4%. In addition, in the data set on MCF10A [2], the “5+ nucleoli phenotype percent effect” value is 46.4%. Also, the “one-nucleolus phenotype percent effect” value in the data set on MCF10A [3] was -25.9%.
Taken in the same sequence, the figures for “AUAUAAUACAACCUGCUAAGUG [hsa-miR-374b-5p]” were 103%, 35.9% and -13.3%.
Taken in the same sequence, the figures for “UCUCACCCCAACUCUGCCCCAG [hsa-miR-6784-3p]” were 56.5%, 44.3% and -25.6%.
Taken in the same sequence, the figures for “UGGGAAAGAGAAAGAACAAGUA [hsa-miR-6739-5p]” were 51.5%, 33% and -11.2%.
For the sequence AAUCCUUUGUCCCUGGGUGAGA [hsa-miR-501-5p], in the data set with MCF10A [1], the percent viability came to 33.2%. In addition, the “5+ nucleoli phenotype percent effect” value with MCF10A [2] was -22.9%. Moreover, in the data set on MCF10A [3], the “one-nucleolus phenotype percent effect” value was 22.1%.
In the same order, the values of UGAGUAUUACAUGGCCAAUCUC [hsa-miR-496] are 42%, -15.6% and 11.1%.
Regarding GUGGUCUCUUGGCCCCCAG [hsa-miR-6848-3p], the percent viability in the data set with MCF10A [1] came to 77.3%. In addition, in the data set with MCF10A [2], the “5+ nucleoli phenotype percent effect” value turned out to be 34.8%. In addition, the “one-nucleolus phenotype percent effect” value in the data set on MCF10A [3] is -17.9%.
